assay: yeast display, Sf9 membrane polyspecificity reagent, FACS + sequencing; frameworks hold sequencing errors
Procedure, shortened: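 A synthetic nanobody library was expressed on Saccharomyces cerevisiae BJ5465 by galactose induction for 36–48 hours. The library was stained for 1 hour at 4 °C with 10% biotinylated, detergent-solubilized Sf9 membrane reagent and enriched with streptavidin microbeads before FACS. Low and high (top ~1%) gates were set on anti-HA fluorescence for expression and streptavidin fluorescence for reagent binding, and each polyreactivity label reflects the gate of origin.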

Sequence	polyreactivity (PSR sort gate)
QVQLVESGGGLVQAGGSLRLSCAASGSTSYRYAMGWYRQAPGKERELVATITSGGRTYYADSVKGRFTISRDNAKNTVYLQMNSLKPEDTAVYYCNKLNYWYKHYYWGQGTQVTVSS	high polyreactivity
QVQHVESGGGLVQAGGSLRLSCAASGRTFGFNAMGWYRQATGKERELVAAITYSGGRTYYADSVKGRFTISRDNAKNTVYLHMNSLKPEDTAVYFCAALTRRVKKYDYLGQGTQVTVSS	high polyreactivity
QVQVVESGGGIVQAGGSLRLSCAASGSIFETYAMGWYRQAPGKESELVAAISRTSGRTYYADSVKGRFTISRDNAMNSVYLQMNSLKPDDTAVYYCAAVVRNPGTYDYWGQGTQVTVSS	high polyreactivity
QVQLVVSGGGLVQAGGSLRLSCAASGSTFQYNAMGWYRQAPGKERELVAAISTGTSTYYADSVKGRFTISRDNAKNTVYLQLNSLKTEVTAVYYCAAEYWGDYTEYNYWGHGTQVTVSS	high polyreactivity
QVQLVESGGGLVQAGGSLRLSCAASGGTFYRSAMGWYRQAPGKERELVAAISTGSSTYYADSVKGRFTISRDNAKNTVYLQINSQKPEDTAVNYCAARYWERYRSFNYWGQGTQVTVSS	high polyreactivity
QVQLVESGGGLVQAGGSLRLSCAASGLNFIRYAMGWYRPAPGKERELVAAISWPGGNTYYADSVKGRFTISRDNAKNTVYLQMISQKPEDTAVYYCAAVGTWQHRSYGYWGQGTQVTVSS	high polyreactivity
QVQLVESGGGLVQAGGSLRLSCAASRRIFDVNSMGWYRQAPGKERELVAAISSGGNTKYADSVKGRFTISRDNAKNSVYLQMNSLKPEDTAVYYCIADGKAAGDYDYWGQGTQVTVSS	low polyreactivity
QVQLVESGGGLVQAGGSLRLSCAASGRIFYSNVMGWYRQAPGKERELVAAISGRTGGTYYADSVKGRFTISRDNAKNTVYLQMNSLKPEATAVYYCAARVIYYYGSGPYDYWGQGTQVTVSS	low polyreactivity
QVQLVDSRGGLVQAGGSLRLSCAASGSTFVNYAMGWYRQAPGKAWELVAAITANGGRTYYADSVKGRFTISRDNAKNTVYLQMNSLKPEDTAVYYCNTESNLYRRRRNYWGQGTQVTVSS	low polyreactivity
QVQLVESGGLIVQAGGSLRLSCAASRSTSRYSMGWYRQAPGKERELDAAITRSCGTTYYADSVKGRFTISRDNAKNSVYLQMNSLKPEDTAVYYCATSDRQVKDDYWGQGTQVTVSS	low polyreactivity
QVQLVESGGGLVQAGGSLRLSCAASGITFSFYAMGWYRQAPGKERELVAGITRSGGDTYYADSVKGRFTISRDNAKNTVYLQMNSLKPEDTAVYYCAAAWFFYRRQYTFFAGRMDYWGQGTQVTVSS	high polyreactivity
QVQLVESGGGLVQAGGSLRLSCAASGSIFYVYAMGWYRQAPGKERELVAAITNYADSVKGRFTISRDNAKNTVYLQMNSLKPEDTAVYYCAADWWRVEMDYWGQVTQVTVSS	low polyreactivity
QVQLVESGGGLVQAGGSLRLSCAASGRTFQYYTMGWYRQAPGKEREFVAALRDSGGSTYYADSVKGRFTISRDNAKNTVYLQMNSLKPEDTAVYYCAAYRPRKYDYWGQGTQVTVSS	high polyreactivity
QVQLVESGGGLVQAGGSLRLSCAASGSTFRGYAMGWYRHAPGKERELVAAITYISDSTYYADSVKGRFTISRDNAKNTVYLQMNSLKPEDTAVYYCIAYYDGDWRYTSQETGDHWGQGTQVTVSS	low polyreactivity
QVQLVESGGGLVQAGGSLRLSCAASGRIFGIYAMGWYRQAPGKERELVATITDSDDSTYYADSVKGRFTISRDNAKNTVYLQMNSLKPEDTAVYYCAAADGIYARYFFSRFPRFDYWGQGTQVTVSS	low polyreactivity
QVQLVESGGGLVQAGGSLRLSCAASGFTFRYNAMGWYRQAPGKERELVAAISWSGGSTYYADSVKGRFTISRDNAKNTVYLQMNSLKPEDTAVYYCNRAYGYSFSLNRYDYWGQGTQVTVSS	low polyreactivity
QVQLQESGGGLVQACGSLRLSCAASGSISNGDYMGWYRQAPGKEREFVAGINTGSITYYADSVKGRFTISRDNAKNTAYLQMNSLKPEDTAVYYCAATFDAQFREPKGLYYWGQGTQVTVSS	low polyreactivity
QVQLVESGVGLVQARGSLRLSSAASGITLPKYAMGWYRQEHGKERELVAAISRRGGITYYADSVKGRFTISRDNAKNTVYVQMNSLKPEDTAVYYCAADRTDTRGFDYWGQGTQVTVSS	high polyreactivity
QVQLVESGGGLVQAGGSLRLSCAASGSIFVPYAMGWYRQAPGKERELVAAISNGDSTYYADSVKGRFTISRDNAKNTVYLQMNSLKPEDTAVYYCATRGIPDDNARDYWGQGTQVTVSS	low polyreactivity
QVQLVESGGGLVQAGGSLRLSCAASGSPFDYNAMGWYRPAPGKERELVAASDVSGDNTYYADSVKGRFTISRDNAKNTVYLQMNSLKPEETAVYYCNADDYWRGTSDYDYWGQGTQVTVSS	low polyreactivity
QVQLVESGGGLVQAGGSLRLSCAASGSILESNVMGWYRQAPGKERELVASISSSGDSTYADSVKGRFTISRDNAKNTVYLQMNSLKPEDTEVYYCAADRWYWTYALYYWGQGTQVTVSS	low polyreactivity

Sequence	polyreactivity (PSR sort gate)
QVQLVESGGGLVQAGGSLRLSCAASGIILYGYARGWYRPAPGKESELVAAISRRGGITYYADTVKARYTISRDNAKNSVYLQMNSLKPEDTAVYYCAADINRRPSYHPDYEYWGQGTQVTVSS	high polyreactivity
QVQLVESGGGLVQAGGSLRLSCAASGRIFGTNARGWYRQAPGKERELVADITSGGSTNYADSVKGRFTISRDNAKNTVYLQMNSLKPEDTAVYYCAADVIGDLRWYRDEYWGQGTQVTVSS	low polyreactivity
QVQLVDSGGGLVQAGGSLRLSCPASGFTFVIYAMGWYRQEPGKESELVAAIRSGGRTYYADSVKGRFTISRDNAKNTVYLQMNSLKPEDTAVYYCAAVPDLKWFGYEYWGQGTQVTVSS	high polyreactivity
QVQLVESRGRLLQAGGSLRLSCAASGRISHINAMGCSIQAPGKERELVAGIRGRGGSTYYADSVKGRFTISRDNAKNSVYLQMNSLKPEDTEVYYCAARGWELIRTDPFDYWGQGSQVTVSS	high polyreactivity
QVQLVESGGGLVQAGGSLRLSCAASGSTFGPNAMGWYRQAPGKERELVATISSGGSTYYADSVKGRFTISRDNAKNTVYLQMNSLKPEDTAVYYCNVLWLRSRRKYDYWGHGTQVTVSS	low polyreactivity
QVHLVESGGGLVQAVVSLRLSCAASGTTFVSYAMGWYRHATGKERELVAGISWSGTRTYYADSVKGRFTISRDNAMNTVYLQMNSLKPEDSAVYYCNAVYIYNYRTLDYWGQGTQVTVSS	high polyreactivity
QGQLVESGGGLVQAGGSLRLSCAASGSIFRAYAMGWNRQAPGKERELVAAISWGGGSTSYADSVKGRFTISRDNAMNTVYLQMNSLKPEDTAVYYCAAELYLSRLRYWYDYWGHGTQVTVSS	high polyreactivity
QVQLVESGGGLVQAGGSLRVSCAASGSTFRRNNMGWYRQAPGKERELVAGISSSGGSTYYADSVKGRFTISRDNAKNTVYLQMNSLKPEDTAVYYCDARFYVSYVGYNYWGQGTQVTVSS	high polyreactivity
QVQLVESGGGLVQPGGSLRLSCAASGFTFYLYALGWYRQAPVKERELVASISSGGRTYYADSVKGRFTISRDNAKNTVYVQMNRLKPADTAVYYCAARRPAWYWSAYRYYSEMDYWGQGTQVTVSS	high polyreactivity
QVQLVESGGGLVQAGGSLRLSCAASGFIFYDYAMGWNRQAPGKERELVAAISSGGSTNYADSVKGRFTISRDNAKNTVYLQMNSLKPEDTAVYFCAADDRSYASWKRDYDYWGQGTQVTVSS	low polyreactivity
QVQLVESGGGLVQAGGSLRLSCAASGRIFYIYAMGWYRQAPGKERELVAAISSGGTTNYADSVKGRFTISRDNAKNTVYLQMNSLKPEDTSVDYCNAVRGEKMGYWGQGTQVTVSS	high polyreactivity
QVQLVESGGGLVQAGGSLRLSCAASGSTFVKNTMGWYRQAPGKERELVAAISSRGGSTYYADSVKGRFTISRDNAKNTVYLQMNSLKPEDTAVYYCNALGLYSRYQQGEYDYWGQGTQVTVSS	low polyreactivity
QVQLVESGGGLVQAGGSLRLSCAASGITFPINAMGWYRQAPGKEREFVATISFSGASTYYADSVKGRFTISRDNAKNTVYLQMNSLKPEDTAVYYCAADLSLSTGGRAFPTYGYWGQGTQVTVSS	high polyreactivity
QVQLVESGGGLVQAGGSLRLSCAASGRTLYNYAMGWYRQAPGKERELVAAISSSGSTNYADSVKVRFTISRDNAKNTVYLQMNSLKPEDTAVYYCAKGYPWRYSIMDYWGQGTQVTVSS	low polyreactivity
QVQLVESGGGLVQAGGSLRLSCAASGLTFEGYAMGWYRQAPGKERELVAAISSSSGRTYYADSVKGRFTISRDNAKNTVYLQMNSLKPEDTAVYYCAARPGSGRSYTSDYWGQGTQVTVSS	high polyreactivity
QVQLVESGGGLVQAGGSLRLSCAASGRIFGYYAMGWYRQAPGKERELVAAIRWSSGRTYYADSVKGRFTISRDNAKNTVYLQMNSLKPEDTAVYYCAKDGGLRKFDYWGQGTQVTVSS	high polyreactivity
QVQLVESGGGLVQAGGSLRLSCAASGSTFLKNAMGWYRQAPGKERELVAAISYSTTRTYYADSVKGRFTISRDNAKNTVYLQMNSLKPEDTAVYSCNARWQEPLKYDYWGQGTQVTVSS	low polyreactivity
QVQLVESGGGLVQAGGSLRLSCAASGSTYYSNAMGWYRPAPGKERELVAGIDTSDGSTNYADSVKGRFTISRDNAKNTVYLQMNSLKPEDTAVYYCAADYTQPGFVSYDYWGQGTQVTVSS	low polyreactivity
QVHLVESGGGLVQAGGSLRLSCAASGIIFYWNPMGWYRQAPGKERELVAAISWSGGSTYYADSVKGRFTISRDNAKNTVYLQMNSLKPEDTAVYYCNAVTTYYPQFRPGAIPGVGYGFWGQGTQVTVSS	low polyreactivity
QVQLVESGGGLVQAGGSLRLSCAAYGRTIFFNAMGWYIQAPGKERELVAAISRGGSRTFYADSVKGRFTISRDNAKNTVYFQMNSLKPEDPAVYYCNAVAQSGRYDYWGQGTQVTVPS	high polyreactivity

Source: the nanobody polyreactivity screen of Harvey et al. (2022)
